{"source": "paper PMC6570770", "about": "“In situ structure and assembly of the multidrug efflux pump AcrAB-TolC” (Nature Communications, 2019)", "target": "the molecule itself", "assay": "cryo-EM structure", "data": [{"protein": "AcrA (periplasmic adaptor protein of the AcrAB-TolC multidrug efflux pump) (natural protein, also called periplasmic adaptor protein AcrA; source: E. coli BL21 (DE3), overexpressed from plasmid pAcBH (acrAB locus), in intact cells) CDDKQAQQGGQQMPAVGVVTVKTEPLQITTELPGRTSAYRIAEVRPQVSGIILKRNFKEGSDIEAGVSLYQIDPATYQATYDSAKGDLAKAQAAANIAQLTVNRYQKLLGTQYISKQEYDQALADAQQANAAVTAAKAAVETARINLAYTKVTSPISGRIGKSNVTEGALVQNGQATALATVQQLDPIYVDVTQSSNDFLRLKQELANGTLKQENGKAKVSLITSDGIKFPQDGTLEFSDVTVDQTTGSITLRAIFPNPDHTLLPGMFVRARLEEGLNPNAILVPQQGVTRTPRGDATVLVVGADDKVETRPIVASQAIGDKWLVTEGLKAGDRVVISGLQKVRPGVQVKAQEVTADNNQQAASGAQPEQSKS", "values": [{"measurement": "stoichiometry N", "value": 6}]}]}
